Assay results published in US20190046659A1.

Molecular target: human GPC3 on GPC3-positive cells (HepG2, Huh-7, SK-Hep-1 GPC3) (human) (UniProt P51654)
Test: cell-based or functional assay

Row | Substance | killing rate of CAR T cells on Huh-7 cells, effector target ratio 1:1 | killing rate of CAR T cells on Huh-7 cells, effector target ratio 1:3
1 | chimeric antigen receptor GC33-28Z (GC33 scFv-CD28a-CD28b-CD3 zeta) on T cells | 22% | 6%
2 | chimeric antigen receptor GC33-28BBZ (GC33 scFv-CD28a-CD28b-CD137-CD3 zeta) on T cells | – | 23%
